What was measured:
[1] = target: human CD71 (transferrin receptor protein 1, TfR1) on human cell lines (human) (UniProt P02786); assay: FACS on H292 cells; isotype ADC control
[2] = target: human CD71 (transferrin receptor protein 1, TfR1) on human cell lines (human) (UniProt P02786); assay: FACS on H292 cells; isotype ADC control, curve fit with Bmax of only 10.64 MFI

Chain of human CD71 (transferrin receptor protein 1, TfR1) on human cell lines (human) (P02786 whole entry): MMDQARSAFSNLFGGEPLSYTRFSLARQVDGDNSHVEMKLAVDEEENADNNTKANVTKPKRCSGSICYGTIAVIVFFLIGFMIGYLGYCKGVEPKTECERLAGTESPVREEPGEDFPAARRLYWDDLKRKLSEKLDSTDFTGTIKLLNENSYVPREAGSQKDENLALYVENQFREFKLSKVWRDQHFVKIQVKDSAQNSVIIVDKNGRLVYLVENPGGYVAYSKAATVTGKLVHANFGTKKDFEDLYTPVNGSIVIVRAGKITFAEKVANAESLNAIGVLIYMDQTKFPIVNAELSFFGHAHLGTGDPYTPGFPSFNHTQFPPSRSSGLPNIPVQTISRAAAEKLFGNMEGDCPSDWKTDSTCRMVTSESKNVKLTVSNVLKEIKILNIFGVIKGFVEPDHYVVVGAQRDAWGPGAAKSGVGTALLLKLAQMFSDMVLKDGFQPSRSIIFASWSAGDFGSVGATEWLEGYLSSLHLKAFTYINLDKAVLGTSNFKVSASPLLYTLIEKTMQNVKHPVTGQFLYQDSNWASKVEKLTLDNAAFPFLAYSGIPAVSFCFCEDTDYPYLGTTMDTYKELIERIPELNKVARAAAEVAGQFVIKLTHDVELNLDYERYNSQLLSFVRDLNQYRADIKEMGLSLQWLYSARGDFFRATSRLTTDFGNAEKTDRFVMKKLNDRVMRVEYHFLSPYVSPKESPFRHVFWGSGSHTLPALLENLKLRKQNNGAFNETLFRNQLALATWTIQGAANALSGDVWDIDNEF

Bmax (MFI) [1]: 10.6 MFI
Kd [2]: 57 nM
Substance: isotype ADC control (palivizumab-vc-MMAE) (antibody)

Reference: US20220306759A1
